{
  "source": "patent US20090304717A1",
  "key": {"[1]": {"molecular_target": "PSMA (prostate-specific membrane antigen) (UniProt Q04609)", "sequence (Q04609 whole entry)": "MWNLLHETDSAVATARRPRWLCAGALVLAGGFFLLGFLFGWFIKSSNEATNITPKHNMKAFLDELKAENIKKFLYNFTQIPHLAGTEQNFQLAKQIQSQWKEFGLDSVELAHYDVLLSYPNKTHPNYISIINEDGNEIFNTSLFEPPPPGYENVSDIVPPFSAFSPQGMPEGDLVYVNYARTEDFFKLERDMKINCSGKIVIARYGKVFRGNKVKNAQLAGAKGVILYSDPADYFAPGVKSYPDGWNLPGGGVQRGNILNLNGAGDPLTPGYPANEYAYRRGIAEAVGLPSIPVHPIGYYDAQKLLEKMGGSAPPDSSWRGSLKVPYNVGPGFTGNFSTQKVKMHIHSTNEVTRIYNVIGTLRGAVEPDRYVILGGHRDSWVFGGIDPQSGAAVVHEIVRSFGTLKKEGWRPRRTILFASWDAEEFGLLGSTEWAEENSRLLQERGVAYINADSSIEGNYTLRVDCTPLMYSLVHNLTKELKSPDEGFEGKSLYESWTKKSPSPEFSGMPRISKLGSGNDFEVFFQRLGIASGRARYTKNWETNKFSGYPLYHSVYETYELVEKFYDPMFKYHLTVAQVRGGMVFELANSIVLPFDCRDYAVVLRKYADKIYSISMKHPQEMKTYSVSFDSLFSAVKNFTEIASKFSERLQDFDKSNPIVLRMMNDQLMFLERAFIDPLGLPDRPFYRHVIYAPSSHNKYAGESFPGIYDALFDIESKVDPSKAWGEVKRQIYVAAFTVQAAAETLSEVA", "experiment": "cell_activity", "conditions": "cytotoxicity on LNCaP, no effect on PSMA-negative MCF-7"}, "[2]": {"molecular_target": "PSMA (prostate-specific membrane antigen) (UniProt Q04609)", "experiment": "flow", "conditions": "LNCaP cells, on ice, sigmoidal fit"}, "[3]": {"conditions": "2'-F pyrimidines (library chemistry)"}},
  "data": [
    {"sequence": "GGGAGGACGAUGCGGAUCAGCCAUGUUUACGUCACUCCUUGUCAAUCCUCAUCGGCAGCGCCAUCAUGGACAAGAAUUGAAGCUUCUUCUUGUCCAUGAUGGCGCGG [xPSM-A-3-siEEF2]", "values": [
      {"measurement": "EC50", "setting": "[1]; [3]", "result": 1510, "unit": "nM"},
      {"measurement": "Kd", "setting": "[2]; [3]", "result": 26.7, "unit": "nM"}
    ]},
    {"sequence": "GGGAGGACGAUGCGGAUCAGCCAUGUUUACGUCACUCCUUGUCAAUCCUCAUCGGCUAAAAAUUGCGCCAUCAUGGACAAGAAUU / GGGAGGACGAUGCGGAUCAGCCAUGUUUACGUCACUCCUUGUCAAUCCUCAUCGGCAAAAAUUCUUGUCCAUGAUGGCGCGG [PSMA biv anneal siEEF2 (1+2 annealed)]", "values": [
      {"measurement": "Kd", "setting": "[2]; transcribed with Durascribe T7 kit (kit implies 2'-F pyrimidines)", "result": 46.5, "unit": "nM"}
    ]},
    {"sequence": "GGGAGGACGAUGCGGAUCAGCCAUGUUUACGUCACUCCUUGUCAAUCCUCAUCGGCUAAAAAUUGCGCCAUCAUGGACAAGAAUUAAUUAAGGGAGGACGAUGCGGAUCAGCCAUGUUUACGUCACUCCUUGUCAAUCCUCAUCGGCAAAAAUUCUUGUCCAUGAUGGCGCGGGAGCUCGAAUU [PSMB1-siEEF2]", "values": [
      {"measurement": "EC50", "setting": "[1]; transcribed with Durascribe T7 kit (kit implies 2'-F pyrimidines), +/-0.1246", "result": 517, "unit": "nM"}
    ]},
    {"sequence": "GGGAGGACGAUGCGGAUCAGCCAUGUUUACGUCACUCCUUGUCAAUCCUCAUCGGCUAAAAUUAGGCCUAUCUGCCCGUCAAUUAAAAAUUGGGAGGACGAUGCGGAUCAGCCAUGUUUACGUCACUCCUUGUCAAUCCUCAUCGGCAGCGCCAUCAUGGACAAGAAUUGAAGCUUCUUCUUGUCCAUGAUGGCGCGGAAAAAAAUUGACGGGCAGAUAGGCCUUUGAGCUCGAAUU [PSMB2-siEEF2]", "values": [
      {"measurement": "EC50", "setting": "[1]; transcribed with Durascribe T7 kit (kit implies 2'-F pyrimidines), +/-0.01282", "result": 212, "unit": "nM"}
    ]}
  ]
}
